Test results: patent publication US20040234982A1 (published 2004)

Assays:
[1] = test system: unknown -112 site binding nuclear protein; test: EMSA
T/EBP/NKX2.1 (TTF1) = molecular target: T1, T/EBP/NKX2.1 (TTF1) (UniProt P23441); test: cell_activity; details: luciferase
T1 sequence: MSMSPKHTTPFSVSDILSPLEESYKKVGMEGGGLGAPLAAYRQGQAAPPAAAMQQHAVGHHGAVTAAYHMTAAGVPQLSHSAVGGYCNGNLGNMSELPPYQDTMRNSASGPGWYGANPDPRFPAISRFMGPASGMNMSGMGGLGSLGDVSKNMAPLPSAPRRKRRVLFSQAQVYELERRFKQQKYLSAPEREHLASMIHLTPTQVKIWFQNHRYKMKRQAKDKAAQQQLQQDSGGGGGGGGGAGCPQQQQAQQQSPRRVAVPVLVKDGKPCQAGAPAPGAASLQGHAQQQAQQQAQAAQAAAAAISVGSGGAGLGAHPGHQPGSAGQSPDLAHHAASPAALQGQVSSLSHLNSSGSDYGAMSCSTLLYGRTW

[2] = molecular target: the molecule itself; test: anti-c-myc immunoblot of COS-1 cell lysate and conditioned medium, non-reducing vs reducing SDS-PAGE; homodimer
Experimental: Three forms of cDNAs encoding type A, B and C proteins were amplified by PCR and inserted into EcoRI and XhoI site of pcDNA3.1/Myc-His(+) A vector (Invitrogen). Transient transfection into COS-1 cells was performed using Effectene transfection reagent (Qiagen). After 2 days, cells and conditioned media were collected, separated on 13% SDS-polyacrylamide gels under reducing and non-reducing conditions, and electrophoretically transferred to nitrocellulose membrane (Schleicher & Schuell). The filter was incubated in PBS containing 5% skim milk, and then for 1 h with 250-fold diluted c-myc 9E10 […] antibody (Santa Cruz Biotechnology, Santa Cruz, Calif.). The filter was washed in PBS containing 0.1% Tween 20, incubated with horseradish peroxidase (HRP)-conjugated anti-rabbit IgG (Amersham Pharmacia Biotech), and then washed with the same buffer. Protein bands were detected using ECL Western blotting detection reagent (Amersham Pharmacia Biotech).
The polypeptides of uteroglobin/CCSP family members form a homodimer or heterodimer (Mukherjee et al., Cell Mol Life Sci 55:771-787, 1999). […] In contrast, no band corresponding to polypeptide C was ever detected in either the cell lysate or the medium under any conditions examined, despite the effort to keep the procedures of transient expression and immunoblot analyses consistent for all three polypeptides. […]

Work on -112A oligonucleotide yielded a binding signal (fold affinity vs -112G) ([1]; binds at same mobility, about 2-fold lower affinity) of 0.5.

For -112G oligonucleotide, the binding signal (fold affinity vs -112A) ([1]; competition with unlabeled oligonucleotides) was 2.

With pGL3-147 mouse UGRP1 promoter reporter the activity (fold activation) (T/EBP/NKX2.1 (TTF1); HeLa cells) was 5.

Work on pGL3-190 mouse UGRP1 promoter reporter yielded an activity (fold activation) (T/EBP/NKX2.1 (TTF1); NCI-H441 cells) of 4.

B1: Mouse UGRP1 type A polypeptide tagged with a c-myc epitope at the carboxyl-terminus, expressed in COS-1 cells (other, not shown: small tags and cut ends)
chain: LLINRLPVVDKLPVPLDDIIPSFDPLKMLLKTLGISVEHLVTGLKKCVDELGPEASEAVKKLLEALSHLV
notes: Type A is 91 amino acids; The protein was found as a homodimer under non-reducing conditions; also called polypeptide A
B1: binds [2].
